B1: Tryptophan synthase alpha chain, P0A877 (parent)
chain: MERYESLFAQLKERKEGAFVPFVTLGDPGIEQSLKIIDTLIEAGADALELGIPFSDPLADGPTIQNATLRAFAAGVTPAQCFEMLALIRQKHPTIPIGLLMYANLVFNKGIDEFYAQCEKVGVDSVLVADVPVEESAPFRQAALRHNVAPIFICPPNADDDLLRQIASYGRGYTYLLSRAGVTGAENRAALPLNHLVAKLKEYNAAPPLQGFGISAPDQVKAAIDAGAAGAISGSAIVKIIEQHINEPEKMLAALKVFVQPMKAATRS

Variants of: B1
Settings: Escherichia coli (strain K12), 25 °C, GdnHCl, CD, reversible: yes, structure 1WQ5, whole UniProt chain shown
[1] = pH 7, Potassium phosphate 0.01 M

Variant	ddG of mutation (higher = less stable) (pH 5.5, acetate 0.05 M) [kcal/mol]	unfolding free energy (pH 5.5, acetate 0.05 M) [kcal/mol]	ddG of mutation (higher = less stable) [1] [kcal/mol]	unfolding free energy [1] [kcal/mol]	ddG of mutation (higher = less stable) (pH 9, Tris-HCl 0.025 M) [kcal/mol]	unfolding free energy (pH 9, Tris-HCl 0.025 M) [kcal/mol]
MERYESLFAQLKERKEGAFVPFVTLGDPGIEQSLKIIDTLIEAGADALSLGIPFSDPLADGPTIQNATLRAFAAGVTPAQCFEMLALIRQKHPTIPIGLLMYANLVFNKGIDEFYAQCEKVGVDSVLVADVPVEESAPFRQAALRHNVAPIFICPPNADDDLLRQIASYGRGYTYLLSRAGVTGAENRAALPLNHLVAKLKEYNAAPPLQGFGISAPDQVKAAIDAGAAGAISGSAIVKIIEQHINEPEKMLAALKVFVQPMKAATRS [E49S]	1.3	3.9	1.4	7.4	-3.1	8
MERYESLFAQLKERKEGAFVPFVTLGDPGIEQSLKIIDTLIEAGADALQLGIPFSDPLADGPTIQNATLRAFAAGVTPAQCFEMLALIRQKHPTIPIGLLMYANLVFNKGIDEFYAQCEKVGVDSVLVADVPVEESAPFRQAALRHNVAPIFICPPNADDDLLRQIASYGRGYTYLLSRAGVTGAENRAALPLNHLVAKLKEYNAAPPLQGFGISAPDQVKAAIDAGAAGAISGSAIVKIIEQHINEPEKMLAALKVFVQPMKAATRS [E49Q]	2.4	2.8	2.5	6.3	-3.6	8.5
MERYESLFAQLKERKEGAFVPFVTLGDPGIEQSLKIIDTLIEAGADALYLGIPFSDPLADGPTIQNATLRAFAAGVTPAQCFEMLALIRQKHPTIPIGLLMYANLVFNKGIDEFYAQCEKVGVDSVLVADVPVEESAPFRQAALRHNVAPIFICPPNADDDLLRQIASYGRGYTYLLSRAGVTGAENRAALPLNHLVAKLKEYNAAPPLQGFGISAPDQVKAAIDAGAAGAISGSAIVKIIEQHINEPEKMLAALKVFVQPMKAATRS [E49Y]	0.4	4.8	0	8.8	-1.9	6.8
MERYESLFAQLKERKEGAFVPFVTLGDPGIEQSLKIIDTLIEAGADALMLGIPFSDPLADGPTIQNATLRAFAAGVTPAQCFEMLALIRQKHPTIPIGLLMYANLVFNKGIDEFYAQCEKVGVDSVLVADVPVEESAPFRQAALRHNVAPIFICPPNADDDLLRQIASYGRGYTYLLSRAGVTGAENRAALPLNHLVAKLKEYNAAPPLQGFGISAPDQVKAAIDAGAAGAISGSAIVKIIEQHINEPEKMLAALKVFVQPMKAATRS [E49M]	-0.7	5.9	-4.5	13.3	-3.5	8.4
MERYESLFAQLKERKEGAFVPFVTLGDPGIEQSLKIIDTLIEAGADALVLGIPFSDPLADGPTIQNATLRAFAAGVTPAQCFEMLALIRQKHPTIPIGLLMYANLVFNKGIDEFYAQCEKVGVDSVLVADVPVEESAPFRQAALRHNVAPIFICPPNADDDLLRQIASYGRGYTYLLSRAGVTGAENRAALPLNHLVAKLKEYNAAPPLQGFGISAPDQVKAAIDAGAAGAISGSAIVKIIEQHINEPEKMLAALKVFVQPMKAATRS [E49V]	-0.9	6.1	-3.2	12	-4.5	9.4
